Test: protease stability score; higher = more stable; yeast display proteolysis, trypsin and chymotrypsin;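 also: relative to predicted unfolded state with 0 unfolded-like and 1 meaning tenfold more protease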

Sequence	protease stability score
SEDEKHAHEFLEQFIRDWVTGNEESFELMLDPDMRLNINGRDFHGREEAVRHFSHRFKQLGVKHIELKEVDIDVFDGKVHSTYDGVERFNGQELRVRIEVEVLKINGQWYLHRVVVKIE	2.27
SEDEKHFREALEELHRALETGDWKRLDELLDPNTRLHINGVDLIGREMVSRFYRELVEHLGINHIELRVHHIRIIGDKVEMDSELIIDVGDKHIRIDQKLDAKKVDGRWISHVESHR	2.05
SEDEKHSEHAIHLIEHSMHTGDEKTLRDNIDPHVRVHINGRDVIGRELWMEILRRDLEELGVERVDFKTHHVEVFNGRMNIDGILTQGDKRVKVQIHYTKINGRWILEELIIR	0.841
SEDEKIAEHLMHEISRSTQTGDEEMSRRLMDPNVRIDINGKQIHGWETWQKEVERVDHSHSRFQLRDVRSQGNYLDARGEFHLDLHINGRTVHIVYDVTFIILKIDGRWFLHSIKVR	0.519
SEDEKIAHKVHRLMFESLRTGDEEFLRRMLDPNARFVVNGQDLVGMEFLDHTLREMRVREIRWRSSDVEIQGDKIINHSKVHSRFDQGEKETHVEVHIIIIYTKIDGQWHVKSVIIEYK	1.12
SEDEKIAQRLLDLLLESFITGDEQMDRELLDPNVKMEVGDKELHGREEALEWFTRVAKRVDHMRFTLTHMDIIDGRIIIQGRVEQFFNGRKVTTRYNLLVLKIDGRWRIEEIRYH	1.42
SEDEKIARDVIKLVLHAMRTGDEELFLKLADPNVRILFDGKELHGREEVIRFRERIDHFDIKRFDLRDMKIINGVMHVDVEIDGVLEVDGVRERRIEKVRWVVLKVDGRWRTHSIEIV	2.69
SEDEKIASEIAEYVERAFRTGNEEEWERYADPHVRTDVNGQDLIGRRTLEEMFHRIDHLHDSRMEIHDVKLVNGRIISDVRLHLDSHYNGVRFEWEHEVRIQVDKINGRWRVKFIEIR	0.428
SEDEKIHREMSKIMLEDLFTGDWKSLRDLVDPNVRIIVDGREFHGREYYSRELIEELLKFKNARFDIEHVELRIYDGRLRTLIHMRVNIDGVEHWVIVEVDFTKIDGRWYVEEIRVEVR	1.33
SEDEKIMEEASRLFMHLFLTGDEETLMRLADPNTRIVFNGQDHHGREEWTKVLRDLGIKHSHIEHVNLRTQGDKVDLNVHVNVHIDGRTRRYLIIVHATKINGRWEIKEIQVHEH	0.989
SEDEKISEEALRRWVHHNRTGNEQDYVRMADPDTKIEIGDKEFHGREEFVKLARDYGFKHYHLKDNDVIGDKIRIDGIVEFNGQRWEMILYFVKYDGRWSIKSIHIK	1.45
SEDEKITKEATRIFLENLHTGDERTMDDNLDPNVLLIINGVELVGREFIVTWLKELRLKRQDIKSIDMRLINGVAHVFMDIHVEGNYNGRDRRSDEELRYIIRKIDGRWSIESVEIHIR	1.22
SEDEKKRDESLELILRAILTGDEDLLKTLADPHVMFDWNGKELHGMNVFIHWVRHMGVDHRNIESKDKRIQGDKVRLDMTSNEHAENHEHRYRVELIIKKIDGRWIIKEFIIR	1.36
SEDEKLAEDFFELLRHLIHTGDENTLREFADPRTRVQINGREIHGWDESARHIMHETLRFKNMRINLHLKDRRVIGEKMELDVKVQLHFNGQTEEFDFILYVEKVNGKWVIKSIHVH	1.26
SEDEKLAHLVTELMTHSDRTGDERILEHLLDPNTRVIINGVSYHGMEAYRHMVRHIRFHNWEIHDVDSVNGQVHVDSRAEGNIDGVRDILNTWIISDKYDGRWIISEIEII	0.53
SEDEKLDRDLHDLFRKLWETGDFDSLLKLADPTARFIYDFENHSEEEHGMHVYLKRLTERLRFFKGLQIEVDVIHVVNGVSHFELTMHIDGVRIKVEIEVITIDGRVREMRVRDN	0.738
SEDEKLFRLSIEIYLRVSRTGDEHMAHEYADPHVRLRIGDKEFHGREEFIKWVNELRVEELRLKEVRVIGDKAHLRTEVHTYIGDKEINYEMEIHQTKIDGKWFLREMKLK	0.486
SEDEKLMEHAFRQLLRDLETGDWHSFHHLADPTVKLDIDGREIHGRESATRVLEELWRKFGVTRVESELHSMHSQGDKLRVESKMNFNGVEYSVIIIMIKIDGRWLLHSENHK	1.56
SEDEKLVHHAANLILEALWTGDEDTLREMVDPNVRTHINGREFHGWEESIRIILHHLNRFKNVRWHLHDQRVYGEKSHNDVRTNVDGVTLEVILILIVVDGRIRSISIEIR	2.68
SEDEKMAERVLRLLYEDILTGDEHALKRLLDPDARLSQGDKQHHGREVLLEWMRTVWERVDHMEFELKDFRFYGNYIIIHGTLTERINGRKLEFEVILYVYKINGKWFLHSIEIR	1.85
SEDEKMANEMLEIMMRNLITGNWEELSRLADPHVRIVINGVELHGRETINNYLHHLRIKRVHLNVTHIESIDGKVKSIGLLREHGEFNGKETETHTKVILIIQKVNGVWIVKEIRDE	1.4
SEDEKMFKEMKDLLLEILRTGDEDSWSHLADPDYRMDINGRIDHGMEEASRSLTEFLRKLGIDHLDIKDSKVTLVNGRAIIILHEETKVNGRKFNLRIINIVSKVNGKWSIESFSMSIE	1.29
SEDEKMIEDASELHIDYFLTGDEESMEKLADPSVKLEQGDKDQHGREQHSKWYKELREELGIKHMRVDDVKFRLINGRLTLLIRGTLHVGDKSWDVHFILISEKIDGKWVIRNMIISYS	1.32
SEDEKMTEMALRLFMHTWRTGDEQVFRHLADPDYRLEVNGVEFIGWEQVTELFSRIVKRFDHMHIHLREFDDINGQADVRGTLILIQGDKEIRMETHIISKKFNGRWTHRRVHFH	0.428
SEDEKNHKIAMRILRRVIETGDERELEELADPDVRIVIGDKFHVGRDVWHEWAHRFDHTHHIEVKDHRHFDGRITLDTEVDVHIDGRRSRMRVIIIARKVDGVWFLHELRIH	1.31

Sequence	protease stability score
SEDEKNSRKFLEDWIRALETGDEHRLEELLDPHVLVIVDGVHYWGMEIFLKERRRHGFKLKDVRLEHMTIQGDKVILHVQIEVHINGRDHHLESYIIIEKVNGRWHVSKLELR	2.71
SEDEKNVDEFMERMTRLTETGDEDNLRHLMDPNVYLHQGDKVHHGREDVVKAIREIIDNLGVTQVKAEVHSFEVIGDKMDLRGTLEFNGVRWRRHIDIHKVDGRWHLQFVHIE	0.251
SEDEKNVEEMSRRLSHVLKTGDEESFSRLADPNARHIYNGRILHGWENFVRFLRHLWEHARIHELHVHDFEYQGDFMHVDSRLNGDINGQQMIFTTHLYNIKINGRWFLTEVKIV	0.429
SEDEKQFNEFLKLFNHSLQTGDEDTLTDLMDPTVRSDINGREFHGREEMSRALNILIKLAGVDHTSIDLKRLEVVGDKAHSDVSLLLIQGDKIRTHEMKLDMYKIDGKWILTHLRFK	1.66
SEDEKQLEHAVKLFIESLRTGDEHSLENLVDPNVRMQINGVELHGRELFIHLFREWRFHSVHLRHLDLQGDKVHLDGKLDVRFDGRRYEVILRTHIEKIDGRWHLRYMYEE	1.45
SEDEKRAKEFDERFNENLLTGNFEKLLHLADPNAKVFYNGQENHGMHLFLKWMVELLKQIRVEDVELDDYKIYGEKIVLDVTIHTRFDGQETEWKTRIITTKVDGRWVLKTVEIR	1.45
SEDEKRLLDLAKEWIHNWLTGDEESMQKLADPSTRYEIGDKELHGMEEVNRSIKISLDELRVKHIDIERVKAINGVVTIHTRIDVEFNGKRMIIETIIRIDIFNGRIKQVWVEFR	1.21
SEDEKSIKVAIELIINSVRTGDERFIKELADPHVRLEIGNKRVHGREEFAKLLSEENRQMRIHIIIDDVKSVGDFVFIRGTIEIHIDGVEERREFEIFVWKFNGRWVIKEERIH	1.43
SEDEKTTKDVFREIKEILLTGDWRALERLLDPHVRFDINGQEIHGRESILEYWLEQVRRLGIDHIEIRLHHIDVQGDKIHLDVRIIYRYGDKEYREETKFVIIKIDGKWHLKEYHVD	2.11
SEDEKTWHKLMEDHIKDWITGNEEKLEENADPHARFELHVGDKRITDHGRDFIEHWVDRIKNLRIELHDFEIQGNKVHLDVRVNVNGVHEIVTIIVIVIDGKLHSLHIHVEIR	-0.08
SEDEKVALEMLEWLSTARRTGDEHVMRELIDPHTRLHYGDKIYIGRDHVIELLLQLRVHIHHVELTHFESVGDKIKLHTEEDGHIDIDGRHHRVIIHTTMYARKFDGQWHTEEIRIH	1.93
SEDEKVVFQILRLWVDLLLTGDEEEMLHLADPNTRVEIGEFDDHGREAMEFMIRRFDVIEDIKIRDIRTIDGKVQIHGEVHSHFNGRRFTIHVEIIARKIDGRWKLTSMHFI	2.08
SEDEKVVKWASDVLLDYIRTGDWRSLEELIDPHARHDVNGVEIIGMEHILKHFMELRRRIDHIHLRVHHIRVFDGQIDLNGKLHVNINGREIELDTRVIALKVNGRWVNHIISIG	1.44
SEDEKVYLKLVEDWIRIWRTGDEDMAEKLADPNVKIIIGDKSTHGREEWTRVVRELRTTEFDAHSITVVDGVVELDGRSRGDINGVEMNSHFTFILYIVDGRLKSQEIEVH	2.03
SEDEKWIRHAIRLLSEALETGDESMEHHLMDPNVKIRIDGVQYIGWEHWKKFVDRFDHEKIEHVHIRHIEVFNGRVDLDGFVHIILFVDGQEIRETRRTRIIVLKYNGKWLIESIEIE	2.3
SEDENILRRVVNILLHVWMTGDEDSLKELIDPHARMDFDGQEVHGREEITRLIRTILHELGIKHFELHRHHIDVQGDKAHIEVDGVDDVDGRKVKVIIRMHVLKVNGRWKTRIVYFERQ	1.65
SEDENLIEEFLRRLMKWHNTGNFDEILNMVDPNTRIIVGDKFHHGRDALRYMWEFLGVDHVRIHVKRQEIIGDKVHNDTELEVNVNGKNLRIKEKLVVIKVNGVWILERIEIQ	1.48
SEDENLIKHVKELLTHRAHTGDERELERLVDPNVKIIVGDKFQIGRELMLETWHRWLEEAGVDQIRLTLHHERIQGDYIILEVTYDVNGREIELTIIHIKVNGKWRLHSMKVR	0.529
SEDEQDAHKWLQLFIDFLKTGDEELMEKFLDPTVRSRVGDKETHGREMLVLHLLFLGVDHIHFRHVEERVYNGRVLLIITILIRVGDKHVETEIRVEIDKINGRWLAETIHIRIR	0.778
SEDEQESRDIIKLLDKSIETGDEKTATRLADPHMRLDIDGVDLHGREEFVRWVIFVVREMRSRVEHTRVRMYDGRAEVDTTLLFIFEGRELRVESHIIMLKIDGRWIIHEVRIH	1.26
SEDEQHLRRMLKVWDTAVKTGDEHLLDRLADPDVRIDINGVELHGREELERMLKQMRIEFEDSDLNHVHIQGDKIHADTEVVVIIIINGREERRRLRIESIVWKVNGRWHFKEFRFK	1.4
SEDEQLAREAIERLLQDFSTGNFERLMEMVDPNVRWEVGDFVSHGRENWSEHFRTYLEKMGFKHVNVRLKHIEVIGNKVIVHSEIIINVDGQELRMQSSSHVVKINGRWVLRSESHL	2.06
SEDEQLRYELAELFFHLISTGDEETIRHYFDPHVLVMIFVNGRNIENHGWEEMTRSLRELRIKDSRLKRVDVYGDYARMDIRVDGEINGVRRDTEVEIRIKWVNGRWKSVNIHIH	2.14
SEDEQQALEIIRQWVEFVRTGDEDSVRRLLDPNVRYEVNGREFHGRELVVRILWEIVYHLGVKHVDNKVEHMEIQGEFVKVETTMILRYNGRTLYIDTRIIIFKIDGRWVFRSIEEK	1.63
SEDEQSLREHIEWIIRALETGDWKKIEKLLDPHTRQDVNGREHIGREEVSRAIVQTFETLGVDHVQLTEIRNINGRLIVHVKMDVNGKILDLELIVTKIDGKWFMESVRLH	1.89

— the NTF2 design screens of Basanta et al. (2020)
